Test results from patent publication US20240327505A1 (published 2024).

Columns and labels:
[1] = target: SARS-CoV-1 spike protein on pseudovirus (SARS-CoV-1, UniProt P59594 14-1255); experiment: cell-based or functional assay
[2] = target: SARS-CoV-2 Wuhan-1 full-length Spike protein on pseudovirus (SARS-CoV-2, UniProt P0DTC2 14-1273); experiment: cell-based or functional assay
[3] = target: SARS-CoV-2 spike protein on fully infectious (replication-competent) SARS-CoV-2 virus (SARS-CoV-2, UniProt P0DTC2 14-1273); experiment: cell-based or functional assay
[4] = target: SARS-CoV-2 spike receptor-binding domain (RBD) (SARS-CoV-2, UniProt P0DTC2 319-541)
[5] = target: SARS-CoV-2 spike S1 protein (SARS-CoV-2, UniProt P0DTC2 16-685)

B1: AB-009614 (antibody, V domains shown)
VH: QVQLVESGGGVVQPGRSLRLSCAASGFTFSSYGMHWVRQAPGKGLEWVAVISYDGSNKYYADSVKGRFTISRDNSKNTLYLQMNSLRAEDTAVYYCAKDQKYYDILTGYYRSTYYYYYYGMDVWGQGTTVTVSS
VL: not shown
Pseudovirus Neturalization [1]: > 50 µg/mL
Pseudovirus Neturalization [2]: 0.142 µg/mL
Neutralization (Infectious virus; (µg/mL)) [3]: 0.075 µg/mL

B2: AB-009281 (antibody, V domains shown)
VH: EVQLVETGGGLIQPGGSLRLSCAASGFTVSSNYMSWVRQAPGKGLEWVSVIYSGGSTYYADSVKGRFTISRDNSKNTLYLQMNSLRAEDTAVYYCARDLYYYGMDVWGQGTTVTVSS
VL: DIQLTQSPSFLSASVGDRVTITCRASQGISSYLAWYQQKPGKAPKLLIYAASTLQSGVPSRFSGSGSGTEFTLTISSLQPEDFATYYCQQLNSYPTFGQGTKVEIK
Pseudovirus Neturalization [1]: > 50 µg/mL
Pseudovirus Neturalization [2]: 0.215 µg/mL
Neutralization (Infectious virus; (µg/mL)) [3]: 33.7 µg/mL

B3: AB-009346 (antibody, V domains shown)
VH: EVQLVESGGGVVRPGGSLRLSCAASGFTFDDYGMSWVRQAPGKGLEWVSGINWNGGSTGYADSVKGRFTISRDNAKNSLYLQMNSLRAEDTALYYCARWPLLGISGYYHYYMDVWGKGTTVTVSS
VL: QSALTQPRSVSGSPGQSVTISCTGTSSDVGGYNYVSWYQQHPGKAPKLMIYDVSKRPSGVPDRFSGSKSGNTASLTISGLQAEDEADYYCCSYAGSYTLLFGGGTKLIVL
Pseudovirus Neturalization [1]: > 50 µg/mL
Pseudovirus Neturalization [2]: 0.774 µg/mL
Neutralization (Infectious virus; (µg/mL)) [3]: 2.14 µg/mL

B4: AB-009615 (antibody, V domains shown)
VH: QVQLVESGGGVVQPGRSLRLSCAASGFTFSSYGMHWVRQAPGKGLEWVAVIWYDGSNKYYADSVKGRFTISRDNSKNTLYLQMNSLRAEDTAVYYCAKVGSPYCSGGSCYSGYFDYWGQGTLVTVSS
VL: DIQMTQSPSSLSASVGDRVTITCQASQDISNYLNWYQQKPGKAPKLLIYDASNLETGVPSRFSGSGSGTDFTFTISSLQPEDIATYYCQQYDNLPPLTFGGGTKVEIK
Pseudovirus Neturalization [1]: > 50 µg/mL
Pseudovirus Neturalization [2]: 27.7 µg/mL
Neutralization (Infectious virus; (µg/mL)) [3]: 12.3 µg/mL

B5: AB-009661 (antibody, V domains shown)
VH: QVQLVESGGGVVQPGRSLRLSCAASGFTFSSYGMHWVRQAPGKGLEWVAVISYDGSNKYYADSVKGRFTISRDNSKNTLYLQMNSLRAEDTAVYYCAKDYGDYGGMDVWGQGTTVTVSS
VL: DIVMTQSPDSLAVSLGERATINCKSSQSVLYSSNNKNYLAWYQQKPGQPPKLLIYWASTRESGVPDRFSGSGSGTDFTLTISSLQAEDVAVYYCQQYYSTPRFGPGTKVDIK
Pseudovirus Neturalization [1]: > 50 µg/mL
Pseudovirus Neturalization [2]: > 50 µg/mL
Neutralization (Infectious virus; (µg/mL)) [3]: 20.6 µg/mL

B6: AB-009734 (antibody, V domains shown)
VH: QVHLVQSGAEVKTPGASVRVSCKASGYTFTSHYMHWVRQAPGQGLEWMGLINPSGSGTAYPQHFQGRVTMTRDTSTTTDYMDLSSLRSEDTAMYFCARMERSGAFDLWGQGTMVTVSS
VL: EIVLTQSPGTLSLSPGERATLSCRASQTISSRYLAWYYQKPGQAPRLLIQGSSIRATGIPDRFSGSGSGTDFTLTISRLEPEDFAVYYCQHYGSSPPMYTFGQGTKLEIK
Pseudovirus Neturalization [1]: > 50 µg/mL
Pseudovirus Neturalization [2]: 42.4 µg/mL
Neutralization (Infectious virus; (µg/mL)) [3]: 21.4 µg/mL

B7: AB-009610 (antibody, V domains shown)
VH: QVQLVQSGAEVKKPGSSVKVSCKASGGTFSNYAISWVRQAPGQGLEWMGRIIPILGIANYAQKFQGRVTITADKSTSTAYMELSSLRSEDTAVYYCATTPYYYDSSGYYLDYWGQGTLVTVSS
VL: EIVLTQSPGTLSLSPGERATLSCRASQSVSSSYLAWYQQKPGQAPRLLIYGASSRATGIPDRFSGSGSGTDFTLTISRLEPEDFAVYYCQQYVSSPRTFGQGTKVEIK
Kd [4]: 21.6 nM
koff [4]: 0.00107 s⁻¹
kon [4]: 49500 M⁻¹ s⁻¹
Kd [5]: 111 nM
koff [5]: 0.00456 s⁻¹
kon [5]: 41100 M⁻¹ s⁻¹

B8: AB-009613 (antibody, V domains shown)
VH: EVQLVESGGGLIQPGGSLRLSCAASGFTVSSNYMSWVRQAPGKGLEWVSVIYSGGSTYYADSVKGRFTISRDNSKNTLYLQMNSLRAEDTAVYYCARDYGDFYFDYWGQGTLVTVSS
VL: not shown
Kd [4]: 4.26 nM
koff [4]: 0.000313 s⁻¹
kon [4]: 73400 M⁻¹ s⁻¹
Kd [5]: 16.1 nM
koff [5]: 0.00102 s⁻¹
kon [5]: 63600 M⁻¹ s⁻¹

B9: AB-010021 (antibody, V domains shown)
VH: QMQLVQSGPEVKKPGTSVKVSCKASGFTFTSSAVQWVRQARGQRLEWIGWIVVGSGNTNYAQKFQERVTITRDMSTSTAYMELSSLRSEDTAVYYCAAVYCSGGSCLDAFDIWGQGTMVTVSS
VL: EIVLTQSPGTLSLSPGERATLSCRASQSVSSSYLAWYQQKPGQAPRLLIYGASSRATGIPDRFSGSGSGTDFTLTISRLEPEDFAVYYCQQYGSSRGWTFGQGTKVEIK
Kd [4]: 12.4 nM
koff [4]: 0.00275 s⁻¹
kon [4]: 221000 M⁻¹ s⁻¹
Kd [5]: 12.5 nM
koff [5]: 0.00214 s⁻¹
kon [5]: 171000 M⁻¹ s⁻¹
